Results on one molecule are retold here after article PMC7423155, “RCC1L (WBSCR16) isoforms coordinate mitochondrial ribosome assembly through their interaction with GTPases” (PLoS Genetics, 2020).

In the assay the target is T1, STREP2-FLAG-tagged RCC1L^V1 (human, UniProt Q96I51 38-464).
T1 construct: RCC1L (WBSCR16), human, isoform RCC1L^V1, the principal isoform, 464 amino acids as precursor; isoform cDNA expressed in cells and recovered from purified mitochondria; pcDNA5/FRT/TO; carboxy-terminal STREP2 followed by FLAG; also called RCC1L^V1-FLAG; WBSCR16 isoform V1; source: inducible transgenic HEK cell line (doxycycline), in lysate of purified mitochondria; not shown: STREP2, C-terminal, …
The experiment in a line: co-IP; STREP2-FLAG-tagged RCC1L isoform as bait, captured on Strep-Tactin Sepharose overnight from trypsin-treated, sucrose gradient-purified HEK mitochondria lysed with 0.8% DDM; 10 washes; elution with 10 mM desthiobiotin; endogenous proteins in the elution found by immunoblot. The following applies: partners not purified. In general terms: A western blot detects proteins with antibodies after separation by electrophoresis.

T1 sequence (Q96I51 38-464): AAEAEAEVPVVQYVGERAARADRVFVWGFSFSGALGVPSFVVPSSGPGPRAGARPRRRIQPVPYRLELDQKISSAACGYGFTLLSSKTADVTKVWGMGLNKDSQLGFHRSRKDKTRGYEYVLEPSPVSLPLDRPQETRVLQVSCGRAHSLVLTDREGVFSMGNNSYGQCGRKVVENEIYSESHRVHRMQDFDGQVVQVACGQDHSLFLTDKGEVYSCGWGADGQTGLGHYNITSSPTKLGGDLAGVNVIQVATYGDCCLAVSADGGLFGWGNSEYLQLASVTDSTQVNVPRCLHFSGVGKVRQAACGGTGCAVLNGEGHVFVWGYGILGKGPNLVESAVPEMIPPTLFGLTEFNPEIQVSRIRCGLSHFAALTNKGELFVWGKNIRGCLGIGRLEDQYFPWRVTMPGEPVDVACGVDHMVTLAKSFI

B1: GTPBP10 (enzyme, human (endogenous in HEK293T), UniProt A4D1E9 1-387, looked up)
chain: MVHCSCVLFRKYGNFIDKLRLFTRGGSGGMGYPRLGGEGGKGGDVWVVAQNRMTLKQLKDRYPRKRFVAGVGANSKISALKGSKGKDCEIPVPVGISVTDENGKIIGELNKENDRILVAQGGLGGKLLTNFLPLKGQKRIIHLDLKLIADVGLVGFPNAGKSSLLSCVSHAKPAIADYAFTTLKPELGKIMYSDFKQISVADLPGLIEGAHMNKGMGHKFLKHIERTRQLLFVVDISGFQLSSHTQYRTAFETIILLTKELELYKEELQTKPALLAVNKMDLPDAQDKFHELMSQLQNPKDFLHLFEKNMIPERTVEFQHIIPISAVTGEGIEELKNCIRKSLDEQANQENDALHKKQLLNLWISDTMSSTEPPSKHAVTTSKMDII
notes: GTPBP10, mitochondrial GTPase of mtLSU assembly, human; endogenous mitochondrial protein; source: endogenous, lysate of purified HEK mitochondria
Consider B1, for which the “fold enrichment in the pull-down over MTG1” value was 5 fold and the “fold enrichment in the pull-down over MTG2” value worked out at 4 fold.
